The values that follow come from patent US20260234276A1 (DOMAIN THERAPEUTICS, published 2026).

B1: 3-47 (antibody, V domains shown)
VH: QVQLQQPGAELVKPGASVKMSCKASGYTFTSYNMHWVKQTPGQGLEWIGAISPGNGDTSYNQKFKGKATLTADKSSSTAYMQLSSLTSEDSAVYYCARGKNGNVPMDYWGQGTSVTVSS
VL: DIVLTQSPASLAVSLGQRATISCRASESVEYYGTSLMKWYQQKPGQPPKLLIYAASIVESGVPARFSGSGSGTDFSLNIHPVEEDDIAMYFCQQSRKVPWTFGGGTKLEIK
B2: 3-29 (antibody, V domains shown)
VH: QVHLVETGGGLVRPGNSLKLSCVTSGFTLSNYRMHWLRQPPGKRLEWIAVIKVKSDNYGANYAESVKGRFTISRDDAKSSVYLQMNRLREEDTATYYCSRPDGFSPFVYWGQGTLVTVSA
VL: DIKMTQSPSSMYASLGERVTITCKASQDINSYLSWFQQKPGKSPKTLIYRANRLVDGVPSRFSGSGSGQDYFLTISSLEYEDMGIYYCLQYGEFPPTFGAGTKLELK
B3: 3-28 (antibody, V domains shown)
VH: EVQLQQSGPELLKPGTSVKISCTTSGYTFSDYTLHWVKQSHGKSLEWIGGITPKNGDTRYDPRFKDKATLTIDKSSSAAYMELRSLTSEDSAVYYCARVARFYGVSPYAMDYWGQGASVTVSS
VL: DVVMTQTPLSLPVSLGDQASISCRCTQSLLHSNGDTYLHWYLQKPGQSPKLLIYKVSNRFSGVPDRFSGSGSGTDFTLEITRVEAEDLGVYFCSQTTHVPYTFGGGTKLEIK
B4: 3-11 (antibody, V domains shown)
VH: EVQLVESGGGLVQPKGSLKLSCAASGFTFNTYAMNWVRQAPGKGLEWVARIRSKSNNYATYYADSVKDRFTISRDDSQSMLYLQMNNLKTEDTAMYYCVRGREAYYRYDGGYYAMDYWGQGTSVTVSS
VL: DIVMTQAAPSVPVTPGESVSISCRSSKSLLHSNGNTYLYWFLQRPGQSPQLLIYRMSNLASGVPDRFSGSGSGTAFTLRISRVEAEDVGVYYCMQHLEYPFTFGSGTKLEIK
B5: 3-30 (antibody, V domains shown)
VH: B4 VH with K19R, T31A, A63G, S79T, G111D
VL: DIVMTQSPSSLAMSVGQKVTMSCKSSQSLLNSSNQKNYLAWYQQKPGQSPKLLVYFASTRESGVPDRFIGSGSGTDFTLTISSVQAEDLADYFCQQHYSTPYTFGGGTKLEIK
B6: 3-14 (antibody, V domains shown)
VH: B4 VH with K15T, K19R, T31A, N57D, A63G
VL: B4 VL with P12S, R24T, L97R
B7: 3-32 (antibody, V domains shown)
VH: B4 VH with T31A, V48L, L81F, T90S
VL: B4 VL with D1E, P9L, V11A, I21M

Substitutions are numbered along the chain they refer to. “And” between values parts separate entries of the source, which are not always exact repeats. Equal values may be shown once.

Chain of pm5 (human, sulfated tyrosines at Y15 and Y17) (peptide, as listed by the source): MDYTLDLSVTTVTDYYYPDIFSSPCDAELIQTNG
Chain of pm8 (human, sulfated tyrosines at Y15, Y16 and Y17) (peptide, as listed by the source): as above
Chain of pm6 (human, sulfated tyrosines at Y16 and Y17) (peptide, as listed by the source): as above

The target of the first test is T1, human CCR8 (human, UniProt P51685 1-355). Briefly: cell-based or functional assay.
On to B1, for which the “IC50 (Gi2 BRET, pH 6.5)” value was 0.175 µg/ml and 1.16 nM; the “IC50 (Gi2 BRET, pH 7.4)” value is 0.483 µg/ml and 3.22 nM.
With B2, the “IC50 (Gi2 BRET, pH 6.5)” value was 0.011 µg/ml and 0.073 nM; the “IC50 (Gi2 BRET, pH 7.4)” value was 0.007 µg/ml and 0.047 nM.
Regarding B3, the “IC50 (Gi2 BRET, pH 6.5)” value is 0.044 µg/ml and 0.292 nM; the “IC50 (Gi2 BRET, pH 7.4)” value was 0.061 µg/ml and 0.405 nM.
For B4, the “IC50 (Gi2 BRET, pH 6.5)” value is 0.03 µg/ml and 0.198 nM; the “IC50 (Gi2 BRET, pH 7.4)” value was 0.031 µg/ml and 0.21 nM.
As to B5, the “IC50 (Gi2 BRET, pH 6.5)” value is 0.053 µg/ml and 0.355 nM; the “IC50 (Gi2 BRET, pH 7.4)” value was 0.063 µg/ml and 0.421 nM.
For B6, the “IC50 (Gi2 BRET, pH 6.5)” value is 0.034 µg/ml and 0.225 nM; the “IC50 (Gi2 BRET, pH 7.4)” value is 0.065 µg/ml and 0.434 nM.
With B7, the “IC50 (Gi2 BRET, pH 6.5)” value is 0.071 µg/ml and 0.476 nM; the “IC50 (Gi2 BRET, pH 7.4)” value is 0.089 µg/ml and 0.596 nM.

The next test concerns the target T1, human CCR8. Briefly: flow cytometry, hCCR8 transfected CHOK1 cells. On the procedure:
Briefly, 1·10⁵ cells per well in a 96 well plate were incubated with a dilution of unconjugated anti-CCR8 mAb at 10 μg/mL then diluted at 1/3.33, 4 dilution points (during 30 min at 4° C.). […] To determine EC50 value, 8 concentrations of anti-CCR8 mAb were tested. Unbound antibodies were washed away with PBS (Invitrogen by Thermofisher Scientific, Illkirch-Graffenstaden, France) supplemented by 2% Fetal Bovine Serum (Invitrogen by Thermofisher Scientific, Illkirch-Graffenstaden, France) and 2 mM EDTA (Invitrogen by Thermofisher Scientific, Illkirch-Graffenstaden, France). Subsequently, cells are centrifuged (5 min at 400 g) and bound antibody is detected with F(ab′)₂-Goat anti-Mouse IgG (H+L) Cross-Adsorbed Secondary Antibody, Alexa Fluor 488 (dilution 1/500) (Invitrogen by Thermofisher Scientific, Illkirch-Graffenstaden, France) or with F(ab′)₂-Goat anti-Human IgG Fc Secondary Antibody, PE (Invitrogen by Thermofisher Scientific, Illkirch-Graffenstaden, France) (dilution 1/1000) at 4° C. for 30 min. Detection reagent is washed away and cells are centrifuged (5 min at 400 g) and resuspended in 30 μL PBS. Bound detection antibody is quantified on a MacsQuant16 (Miltenyi, Gladbach, Germany) (B1 or B2 channel, 5000 events per acquisition).
B1: the “% positive cells” value was 75.8% and the “MFI fold change to isotype ctrl” value worked out at 6.81 fold.
In the same order, the values of B2 are 71.3% and 6.26 fold.
On to B3, for which the “% positive cells” value came to 81.1% and the “MFI fold change to isotype ctrl” value stood at 10.7 fold.
Consider B4, for which the “% positive cells” value turned out to be 90.6% and the “MFI fold change to isotype ctrl” value was determined as 22.7 fold.
In the same order, the values of B5 are 68.5% and 5.12 fold.
In the same order, the values of B6 are 66.8% and 5.06 fold.
In the same order, the values of B7 are 81.8% and 16.2 fold.

The next test addresses pm8 (human, sulfated tyrosines at Y15, Y16 and Y17). The test is described as follows: ELISA on coated peptide [cont.]. How it is done:
(§1) The specific binding properties of antibodies were evaluated by ELISA with coated CCR8 related peptides (500 ng/mL) in carbonate/bicarbonate buffer. Different peptides were used as described in Table 1 (see Example 1). Each anti-CCR8 mAb was tested at 1 μg/mL then diluted at 1/10. After an incubation at room temperature during 90 min, unbound mAbs were removed by washings. […] After washings, 3,3′,5,5′-tetramethylbenzidine (TMB) (Interchim, Montlugon, France) was added for 15 min. Then the optical density (OD) was determined by using a multiplate reader (Tecan, Lyon, France) and correlated with mAb reactivity on the panel of coated peptides.
Background: In an ELISA, binding on a coated surface is turned into a signal by an enzyme label.
Regarding B1, the binding result was “binds”.
As to B2, the binding result is reported as “binds”.
Still for that read-out and setting: with B3 the entry was “binds”; with B4, “binds”; with B5, “binds”.
Take B6: the binding result was “binds”.
On the same count and under the same terms, as for B7, the entry is “binds”.

The target of another test is pm5 (human, sulfated tyrosines at Y15 and Y17). The test is described as follows: ELISA on coated peptide [cont.]. How it is done:
as §1
On to B1, for which the binding result is recorded as “binds”.
Same read-out and setting: with B2 the entry was “binds”; with B3, “binds”.
For B4, the binding result is given as “binds”.
The same measure, in the same setting: with B5 the entry was “binds”; with B6, “binds”; with B7, “binds”.

A further test concerns the target pm6 (human, sulfated tyrosines at Y16 and Y17). Briefly: ELISA on coated peptide [cont.]. On the procedure:
as §1
Consider B1, for which the binding result was “binds”.
Turning to B2, the binding result is reported as “binds”.
In the case of B3, the binding result is given as “binds”.
On the same count and under the same terms, as for B4, the entry is “binds”; as for B5, “binds”; as for B6, “binds”.
In the case of B7, the binding result was “binds”.

The target in the next test is pm3 (human, sulfated tyrosine at Y17). Briefly: ELISA on coated peptide [cont.]. How it is done: as §1
Chain of pm3 (human, sulfated tyrosine at Y17) (peptide, as listed by the source): as above
On to B1, for which the binding result is given as “binds”.
In the case of B2, the binding result was “binds”.
As for B3, the binding result is given as “binds”.
Same read-out and setting: as for B4, the entry is “binds”; as for B5, “binds”; as for B6, “binds”.
As for B7, the binding result is listed as “binds”.

A further test addresses T1, human CCR8. The test is described as follows: cell-based or functional assay. The source holds these as a separate data set.
Turning to B2, the “hCCL1 (100 nM) residual response, Protocol #2, mAb 0.08 µg/mL” value stood at 73%; the “hCCL1 (100 nM) residual response, Protocol #2, mAb 0.4 µg/mL” value came out at 51%; the “hCCL1 (100 nM) residual response, Protocol #2, mAb 10 µg/mL” value came out at 24%; the “hCCL1 (100 nM) residual response, Protocol #3, mAb 0.05 µg/mL” value amounted to 69%. Also, the “hCCL1 (100 nM) residual response, Protocol #3, mAb 0.5 µg/mL” value was determined as 38% and the “hCCL1 (100 nM) residual response, Protocol #3, mAb 5 µg/mL” value amounted to 30%.
On to B3, for which the “hCCL1 (100 nM) residual response, Protocol #2, mAb 0.08 µg/mL” value is 79%; the “hCCL1 (100 nM) residual response, Protocol #2, mAb 0.4 µg/mL” value turned out to be 38%; the “hCCL1 (100 nM) residual response, Protocol #2, mAb 10 µg/mL” value turned out to be 17%; the “hCCL1 (100 nM) residual response, Protocol #3, mAb 0.05 µg/mL” value stood at 102%. Further, the “hCCL1 (100 nM) residual response, Protocol #3, mAb 0.5 µg/mL” value came out at 64% and the “hCCL1 (100 nM) residual response, Protocol #3, mAb 5 µg/mL” value was determined as 47%.
As for B4, the “hCCL1 (100 nM) residual response, Protocol #2, mAb 0.08 µg/mL” value is 60%; the “hCCL1 (100 nM) residual response, Protocol #2, mAb 0.4 µg/mL” value stood at 36%; the “hCCL1 (100 nM) residual response, Protocol #2, mAb 10 µg/mL” value was 19%; the “hCCL1 (100 nM) residual response, Protocol #3, mAb 0.05 µg/mL” value was 74%. The “hCCL1 (100 nM) residual response, Protocol #3, mAb 0.5 µg/mL” value stood at 68% and the “hCCL1 (100 nM) residual response, Protocol #3, mAb 5 µg/mL” value amounted to 48%.
For the molecule B5, the “hCCL1 (100 nM) residual response, Protocol #2, mAb 0.08 µg/mL” value stood at 70%; the “hCCL1 (100 nM) residual response, Protocol #2, mAb 0.4 µg/mL” value stood at 44%; the “hCCL1 (100 nM) residual response, Protocol #2, mAb 10 µg/mL” value came to 51%; the “hCCL1 (100 nM) residual response, Protocol #3, mAb 0.05 µg/mL” value is 78%. Further, the “hCCL1 (100 nM) residual response, Protocol #3, mAb 0.5 µg/mL” value stood at 55% and the “hCCL1 (100 nM) residual response, Protocol #3, mAb 5 µg/mL” value amounted to 43%.
For the molecule B6, the “hCCL1 (100 nM) residual response, Protocol #2, mAb 0.08 µg/mL” value is 72%; the “hCCL1 (100 nM) residual response, Protocol #2, mAb 0.4 µg/mL” value stood at 49%; the “hCCL1 (100 nM) residual response, Protocol #2, mAb 10 µg/mL” value was 28%; the “hCCL1 (100 nM) residual response, Protocol #3, mAb 0.05 µg/mL” value worked out at 75%. Further, the “hCCL1 (100 nM) residual response, Protocol #3, mAb 0.5 µg/mL” value worked out at 36% and the “hCCL1 (100 nM) residual response, Protocol #3, mAb 5 µg/mL” value came to 22%.
Turning to B7, the “hCCL1 (100 nM) residual response, Protocol #2, mAb 0.08 µg/mL” value stood at 88%; the “hCCL1 (100 nM) residual response, Protocol #2, mAb 0.4 µg/mL” value was found to be 57%; the “hCCL1 (100 nM) residual response, Protocol #2, mAb 10 µg/mL” value is 46%; the “hCCL1 (100 nM) residual response, Protocol #3, mAb 0.05 µg/mL” value was 73%. The “hCCL1 (100 nM) residual response, Protocol #3, mAb 0.5 µg/mL” value stood at 36% and the “hCCL1 (100 nM) residual response, Protocol #3, mAb 5 µg/mL” value worked out at 36%.
